{"source": "patent US20060035332", "key": {"[1]": {"target": "human OT7T022 receptor (human)", "sequence (chain, as listed by the source)": "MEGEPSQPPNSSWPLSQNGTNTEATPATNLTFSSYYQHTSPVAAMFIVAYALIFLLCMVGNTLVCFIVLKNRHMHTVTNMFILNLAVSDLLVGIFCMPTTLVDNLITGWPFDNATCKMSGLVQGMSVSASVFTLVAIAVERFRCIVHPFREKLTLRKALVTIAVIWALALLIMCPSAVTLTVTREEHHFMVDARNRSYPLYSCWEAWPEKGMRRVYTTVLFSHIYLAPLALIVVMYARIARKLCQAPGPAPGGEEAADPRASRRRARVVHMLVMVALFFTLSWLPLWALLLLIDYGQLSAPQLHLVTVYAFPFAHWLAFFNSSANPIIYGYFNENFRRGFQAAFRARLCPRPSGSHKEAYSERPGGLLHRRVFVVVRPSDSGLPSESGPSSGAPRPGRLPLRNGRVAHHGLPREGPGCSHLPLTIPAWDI", "test": "competition", "settings": "modification not given"}, "[2]": {"target": "human OT7T022 receptor (human)", "test": "competition, 125I-Tyr-hRFRP-3(8), pH 7.5, room temperature", "settings": "modification not given"}}, "data": [{"binder": "PNLPQRF", "note": "[hRFRP-3(7)]", "values": [{"measurement": "IC50", "setting": "[1]", "value": 0.62, "unit": "nM"}]}, {"binder": "SAGATANLPLRSGRNMEVSLVRRVPNLPQRF", "note": "[hRFRP-3(31)]", "values": [{"measurement": "IC50", "setting": "[2]", "value": 1.3, "unit": "nM"}]}, {"binder": "LPQRF", "note": "[hRFRP-3(5)]", "values": [{"measurement": "IC50", "setting": "[2]", "value": 2.1, "unit": "nM"}]}, {"binder": "ATANLPLRSGRNMEVSLVRRVPNLPQRF", "note": "[hRFRP-3(28)]", "values": [{"measurement": "IC50", "setting": "[2]", "value": 1.1, "unit": "nM"}]}, {"binder": "NLPQRF", "note": "[hRFRP-3(6)]", "values": [{"measurement": "IC50", "setting": "[1]", "value": 2.6, "unit": "nM"}]}]}
